One protein from paper PMC9091645 can be followed below.

Substrate in the data set: CCCC(=O)Oc1ccc([N+](=O)[O-])cc1
The data set can be described thus: initial rates of p-nitrophenyl butyrate hydrolysis. It counts as biochemical, Rhizopus arrhizus. The settings on record: 30 °C, 25 mM phosphate buffer pH 8, substrate 10-100 mM.

B1: ROL (Rhizopus oryzae lipase; wild type WROL) (Rhizopus arrhizus) (protein)
chain: SDGGKVAAATTAQIQEFTKYAGIAATAYCRSVVPGNKWDCVQCQKWVPDGKIITTFTSLLSDTNGYVLRSDKQKTIYLVFRGTNSFRSAITDIVFNFSDYKPVKGAKVHAGFLSSYEQVVNDYFPVIQEQLTANPTYKVIVTGHSLGGAQALLAGMDLYQREPRLSPKNLSIFTVGGPRVGNPTFAYYVESTGIPFQRTVHKRDIVPHVPPQSFGFLHPGVESWIKSGTSNVQICTSEIETKDCSNSIVPFTSLLDHLSYFDINEGSCL
B1: the Km stood at 5.56 mM, the Vmax is 2.34 µmol/min/mg, the kcat was 1.25 s⁻¹ and the kcat/Km was found to be 220 M⁻¹ s⁻¹.
